According to publication PMC10333338, “Mechanism of ATP hydrolysis dependent rotation of bacterial ATP synthase” (Nature Communications, 2023):

Molecular target: T1, α subunit of the F1 domain of FoF1 ATP synthase from Geobacillus stearothermophilus (Bacillus PS3 sp.) (G. stearothermophilus (Bacillus PS3 sp.), UniProt P09219 1-502)
T1 construct: ATP synthase subunit alpha, Bacillus PS3 sp; (G. stearothermophilus); subunit of the ΔεCT-FoF1 complex; Three copies stand in the F1 domain (α3β3γ); The complex was purified on Ni-NTA; also called αE; αT
T1 sequence (P09219 whole entry, the tested form may be a part): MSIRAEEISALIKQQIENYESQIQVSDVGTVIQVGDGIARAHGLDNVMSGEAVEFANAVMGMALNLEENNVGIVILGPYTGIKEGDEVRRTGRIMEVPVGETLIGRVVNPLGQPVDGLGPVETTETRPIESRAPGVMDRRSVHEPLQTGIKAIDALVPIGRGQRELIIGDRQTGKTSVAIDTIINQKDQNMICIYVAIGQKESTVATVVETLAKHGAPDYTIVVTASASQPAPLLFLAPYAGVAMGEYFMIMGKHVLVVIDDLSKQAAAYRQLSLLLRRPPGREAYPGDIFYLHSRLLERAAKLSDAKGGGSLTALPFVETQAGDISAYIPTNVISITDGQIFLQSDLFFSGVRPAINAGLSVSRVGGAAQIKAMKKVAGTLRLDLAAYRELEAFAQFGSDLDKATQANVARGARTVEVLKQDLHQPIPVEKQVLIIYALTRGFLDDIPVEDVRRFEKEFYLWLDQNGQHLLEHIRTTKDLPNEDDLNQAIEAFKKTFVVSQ
Experiment: cryo-EM structure; purified ΔεCT-FoF1 in DDM, 9 µM enzyme; 26 mM ATP-Mg, 20 s at 25 °C (high [ATP], nucleotide-depleted enzyme) or 25 µM ATP with pyruvate kinase and PEP, 60 s at 25 °C (low [ATP]); flash frozen; focused refinement on the F1 domain
Conditions: both partners purified

- binding result: binds
B1: γ subunit of the F1 domain of FoF1 ATP synthase from Geobacillus stearothermophilus (Bacillus PS3 sp.) (natural protein, G. stearothermophilus (Bacillus PS3 sp.), UniProt P09222 5-286, looked up)
chain: ASLRDIKTRINATKKTSQITKAMEMVLTSKLNRAEKREIVRPYMEKIQEVVANVALAARASHPMLVSRPVKKTGYLVITSDRGLAGAYNSNVLRLVYQTIQKRHASPDEYAIIVIGRVGLSFFRKRNMPVILDITRLPDQPSFADIKEIARKTVGLFADGTFDELYMYYNHYVSAIQQEVTERKLLPLTDLAENKQRTVYEFEPSQEEILDVLLPQYAESLIYGALLDAKASEHAARMTAMKNATDNANELIRTLTLSYNRARQAAITQEITEIVAGANALQ
notes: ATP synthase gamma chain, Bacillus PS3 sp; (G. stearothermophilus); subunit of the ΔεCT-FoF1 complex; One copy in the centre of α3β3; also called γ-stalk; central γ subunit
